Legend:
[1] = target: Cardiac phospholamban (rat heart homogenate) (rat (endogenous in rat left ventricle)) (UniProt P61016)
[2] = target: PKGIα M438G (analogue-sensitive mutant), disulfide dimer (human); assay: cross-linking; intermolecular Cys42 disulfide of purified recombinant PKGIα (lipoic acid or air oxidation) seen as dimer by SDS-PAGE
C42S PKGIα (human) = assay: ITC; PLN (1–23) (700 μM) titrated into the cell containing WT disulfide PKGIα or the C42S mutant (70 μM); 25 °C; 50 mM sodium phosphate buffer pH 7.4, 100 mM NaCl; no cyclic nucleotide
[3] = target: PKGIα (WT mouse heart) (mouse (endogenous in mouse heart)) (UniProt P0C605); assay: cross-linking; intermolecular disulfide dimer of PKGIα in perfused mouse hearts (0 or 5 mm Hg EDP), homogenised with 100 mM maleimide, SDS-PAGE without reducing agent and immunoblot

Chain of Cardiac phospholamban (rat heart homogenate) (rat (endogenous in rat left ventricle)) (P61016 whole entry): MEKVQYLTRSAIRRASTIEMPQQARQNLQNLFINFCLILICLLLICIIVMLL
Chain of N-terminally acetylated peptide of the N-terminal cytoplasmic domain of human phospholamban, PLN (amino acid 1-23) (P26678 1-23): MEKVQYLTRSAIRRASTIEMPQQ
Chain of PKGIα (WT mouse heart) (P0C605 2-671): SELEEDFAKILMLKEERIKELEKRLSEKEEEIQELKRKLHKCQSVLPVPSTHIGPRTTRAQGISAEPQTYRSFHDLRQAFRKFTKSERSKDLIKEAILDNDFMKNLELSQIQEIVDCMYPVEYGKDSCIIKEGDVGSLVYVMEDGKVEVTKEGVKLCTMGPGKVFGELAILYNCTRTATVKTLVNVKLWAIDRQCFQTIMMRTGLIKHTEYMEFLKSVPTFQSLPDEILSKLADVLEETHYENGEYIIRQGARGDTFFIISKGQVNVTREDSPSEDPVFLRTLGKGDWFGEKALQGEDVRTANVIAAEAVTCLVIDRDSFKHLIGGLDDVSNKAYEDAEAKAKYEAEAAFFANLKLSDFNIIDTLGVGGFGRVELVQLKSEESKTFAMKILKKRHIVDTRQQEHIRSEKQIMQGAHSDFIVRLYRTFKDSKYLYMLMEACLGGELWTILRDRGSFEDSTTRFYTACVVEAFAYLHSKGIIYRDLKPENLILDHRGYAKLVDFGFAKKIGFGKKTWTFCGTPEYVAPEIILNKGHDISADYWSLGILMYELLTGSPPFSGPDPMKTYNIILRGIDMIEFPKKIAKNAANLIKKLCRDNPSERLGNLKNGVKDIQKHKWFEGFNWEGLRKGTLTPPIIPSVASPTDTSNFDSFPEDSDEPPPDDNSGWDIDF

**Q.** Which results are given for “PKGIα M438G (analogue-sensitive mutant), disulfide dimer (enzyme)”?
**A.** log2 fold change in abundance of the PLN pSer16 phosphopeptide (thiophosphorylation in rat heart homogenate), disulfide-activated PKGIα M438G versus basal PKGIα C42S/M438G control (log2 fold change) [1]: 0.41; stoichiometry N [2]: 2

**Q.** With “N-terminally acetylated peptide of the N-terminal cytoplasmic domain of human phospholamban, PLN (amino acid 1-23) (from UniProt P26678 1-23)” as the substance, how does the fold change of Kd against WT PKGIα disulfide dimer (C42S PKGIα (human)) read?
**A.** > 5 fold

**Q.** “PKGIα (WT mouse heart) (from UniProt P0C605 1-671) (enzyme)” was tested. Which stoichiometry N [3] did it give?
**A.** 2

From paper PMC5095173, “Disulfide-activated protein kinase G Iα regulates cardiac diastolic relaxation and fine-tunes the Frank–Starling response” (Nature Communications, 2016)
